The target of assay [1] is T1, HBs抗原(Prosec Tany Technology Ltd. HBS 875), biotinylated (Hepatitis B virus (adr型), UniProt P03140 175-400, biotinylated with EZ-Link NHS-PEG4-biotin (sites not given)).
T1 construct: also called ビオチン化HBs抗原; adr型HBs抗原(PROSPEC社製)
T1 chain: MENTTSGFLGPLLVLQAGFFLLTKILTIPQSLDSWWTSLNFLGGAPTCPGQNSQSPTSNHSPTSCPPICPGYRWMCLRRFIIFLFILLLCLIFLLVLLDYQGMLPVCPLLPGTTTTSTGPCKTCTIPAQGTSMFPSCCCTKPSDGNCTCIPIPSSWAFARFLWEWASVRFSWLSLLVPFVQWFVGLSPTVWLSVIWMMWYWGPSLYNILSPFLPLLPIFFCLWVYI
The assay can be described thus: BLI (Octet RED96e), biotinylated HBs antigen on streptavidin sensor, antibody in solution.

The target of assay [2] is T1, HBs抗原(Prosec Tany Technology Ltd. HBS …. The assay is described as follows: BLI (Octet), as in Example 3: biotinylated HBs antigen on streptavidin sensor.

B1: クローンHB1170 (mouse monoclonal HBs antigen-binding antibody) (antibody, V domains shown)
VH: QIQLVQSGPELKKPGETVKISCKASGYTFTDFSMHWVKQAPGKGLKWMGWIDTETGEPTNADDFKGRFVFSLETSASAAYLQIHNLKNDDTATYFCARKDYELGTWFVYWGQGTLVTVST
VL: DIQMTQTTSSLSASLGDRVTISCRASQDISNFLNWYQQKPDGTVKLLIYYTSRLHSGVPSRFSGSGSGTDYSLTISNLEQEDFATYFCQQGKTLPRTFGGGTILEIK
notes: Mouse hybridoma antibody; also called HB1170; HB1170クローン
For B1, in assay [1], the Kd is roughly 3 nM.

B2: クローンHB351 (mouse monoclonal HBs antigen-binding antibody) (antibody, V domains shown)
VH: EIQLQQSGAELVKPGASVKLSCTASGFNIKDTYMYWVKQRPEQGLEWIGRIDPANGDTKYDPNFQGKATITADPSSNTAYLQLTSLTSEDTAVYYCARDDYDGAMDYWGRGTSVTVSS
VL: QIVLTQSPAIMSASPGERVTMTCSASSTVNYMYWYQQKPGSSPRLLNFDTSNLASGVPVRFSGSGSGTSYSLTISRMEAEDAATYYCQRWSTYPPITFGSGTKLEIK
notes: Mouse hybridoma antibody; The 91/92 assignment follows the order HB351, HB1170, HB1215 = (1), (2), (3); also called HB351; クローン351
Take B2: the Kd in assay [1] was roughly 0.3 nM.

B3: クローンHB1215 (mouse monoclonal HBs antigen-binding antibody) (antibody, V domains shown)
VH: QVQLKQSGPGLVQPSQSLSLTCTVSGFSLATYGVQWVRQSPGKGLEWLGVIWRGGNTDYNAAFMSRLSITKDNSKSQVFFKMNSLQGDDTAIYYCAKATYFDVWGAGTTVTVSS
VL: QAVVTQESALTTSPGETVTLTCRSSTGAVTTSNFANWVQEKPDHLFTGLIGDTNNRAPGVPARFSGSLIGDKAALTITGAQTEDEAIYFCALWYNNWVFGGGTKLTVL
notes: Mouse hybridoma antibody; also called HB1215; HB1215クローン
Regarding B3, in assay [1], the Kd was roughly 0.3 nM.

B4: ヒト化HB1170 (antibody, V domains shown)
VH: QVQLVQSGSELKKPGASVKVSCKASGYTFTDFSMHWVRQAPGQGLKWMGWIDTETGEPTNADDFKGRFVFSLDTSVSTAYLQISSLKAEDTAVYYCARKDYELGTWFVYWGQGTTVTVSS
VL: DIQMTQSPSSLSASVGDRVTITCRASQDISNFLNWYQQKPGKAPKLLIYYTSRLHSGVPSRFSGSGSGTDYTLTISSLQPEDFATYYCQQGKTLPRTFGGGTKVEIK
notes: also called humanized HB1170; ヒト化したモノクローナル抗体HB1170
The molecule B4 gave a Kd in assay [2] of roughly 3 nM.

B5: ヒト化HB351 (antibody, V domains shown)
VH: EVQLVQSGAEVKKPGATVKISCKVSGFNIKDTYMYWVQQAPGKGLEWIGRIDPANGDTKYDPNFQGRVTITADTSTDTAYMELSSLRSEDTAVYYCARDDYDGAMDYWGQGTLVTVSS
VL: EIVLTQSPATLSLSPGERATLSCSASSTVNYMYWYQQKPGQAPRLLNFDTSNLASGIPARFSGSGSGTDFTLTISSLEPEDFAVYYCQRWSTYPPITFGQGTKLEIK
notes: also called humanized HB351; ヒト化したモノクローナル抗体HB351
Regarding B5, the Kd in assay [2] is roughly 0.3 nM.

The record behind these values is patent JP2023053786A (dated 2023).
